Data reported in patent publication US20120190564A1, “IDENTIFICATION OF PROTEIN BINDING SITES” (priority 2000, published 2012).
“Also recorded” adds a separate entry of the source. Ends that are not written are not given here. code + = amino-terminal bromo-group; mmt = not defined here

Columns and labels:
Type in all cases: binding
Antibody-2 = assay: Pepscan ELISA on single or double hFSH peptide loops, Antibody-2; settings: individual loop peptides coupled as single loops
Excerpt: (§1) FIG. 17: Result of Pepscan ELISA with two different antibodies on single or double peptide loops coupled to Pepscan minicards, as described above. Coupled to square-A: Loop peptide-1; Coupled to square-B: first Loop peptide-1 followed by Loop peptide-2; Coupled to square-C: Loop peptide-2; Coupled to square-D: first Loop peptide-2 followed by Loop peptide-1. Loop peptide-1: +KSYNRVTVMGGFKVEZ-conh2 (SEQ ID NO: 63); Loop peptide-2: +LQENPFFSQPGAPILZ-conh2 (SEQ ID NO: 64). The y-axis are optical density values (OD) obtained using a ccd-camera system. Both loop-peptides are derived from human Follicle-Stimulating Hormone (hFSH).
(§2) Two peptides that constitute two separate parts of a discontinuous epitope were coupled to the surface of a minicard as described above in the legend of FIG. 12 (cf. FIG. 3A and FIG. 4 (example-4)). A cys(mmt) was coupled alone or in combination with a cys(trt) (in a 1:1 ratio) and/or val(mmt) (the cys and val in a 1:1, 1:3, 1:9 etc. ratio). In this way one peptide was coupled (squares A and C) or two peptides with increasing valines in between the cysteines were coupled (squares B and D) (cf. FIG. 4B (example-4), FIG. 17). These four configurations were incubated with two different antibodies.

lysozyme-biotin = lysozyme-biotin (Gallus gallus, UniProt P00698); assay: Loop-loop Matrix-scan of CDR loop-peptide pairs with lysozyme-biotin; settings: lysozyme-biotin 100 ug/ml, in triplo
Chain of lysozyme-biotin (P00698 19-147): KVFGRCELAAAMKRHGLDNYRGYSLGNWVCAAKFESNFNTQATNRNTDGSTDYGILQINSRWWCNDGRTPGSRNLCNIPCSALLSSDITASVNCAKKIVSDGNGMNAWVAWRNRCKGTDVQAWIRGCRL
Description: FIG. 16: Result of the loop-loop 15-mer Matrix-scan of loop-loop CDR-regions of antibodies with lysozyme-biotin (100 ug/ml, in triplo). Using 1 μg/ml lysozyme-biotin no binding is observed (not shown). Controls of only streptavidin-peroxidase in between the tests were negative (not shown). Peptides A, B, C, D, E and F: Peptide-A: +ARERDYRLDYZ (SEQ ID NO: 30) (HCDR3 of 1 fdl.pdb); Peptide-B: +ARGDGNYGYZ (SEQ ID NO: 31) (HCDR3 of 1mlb.pdb); Peptide-C: +LHGNYDFDGZ (SEQ ID NO: 32) (HCDR3 of 3hfl.pdb); Peptide-D: +ANWDGDYZ (SEQ ID NO: 33) (HCDR3 of 3hfm.pdb); Peptide-E: +ARRYGNSFDYZ (SEQ ID NO: 34) (HCDR3 of 1qfw.pdb); Peptide-F: +ARQGTAAQPYWYZ (SEQ ID NO: 35) (HCDR3 of 1qfw.pdb) (1fdl.pdb, 1mlb.pdb, 3hfl.pdb and 3hfm.pdb are antibodies that bind lysozyme; 1qfw.pdb are two antibodies that bind human choriogonadotrophin). All peptides have an amino terminal bromo-group (+) and a carboxyterminal lysine-mmt (Z).
Peptides 1 to 27: Peptide-1: +RASGNIHNYLAZ (SEQ ID NO: 36) (LCDR1 of 1fdl.pdb); Peptide-2: +RASQSISNNLHZ (SEQ ID NO: 37) (LCDR1 of 1mlb.pdb); Peptide-3: +SASSSVNYMYZ (SEQ ID NO: 38) (LCDR1 of 3hfl.pdb); Peptide-4: +RASQSIGNNLHZ (SEQ ID NO: 39) (LCDR1 of 3hfm.pdb); Peptide-5: +RASESVDSYGNSZ (SEQ ID NO: 40) (LCDR1 of 1qfw.pdb); Peptide-6: +ASESVDSYGNSFZ (SEQ ID NO: 41) (LCDR1 of 1qfw.pdb); […]: +SESVDSYGNSFMZ (SEQ ID NO: 42) (LCDR1 of 1qfw.pdb); Peptide-8: +ESVDSYGNSFMQZ (SEQ ID NO: 43) (LCDR1 of 1qfw.pdb); Peptide-9: +RASESVDSYGNSFZ (SEQ ID NO: 44) (LCDR1 of 1qfw.pdb); Peptide-10: +ASESVDSYGNSFMZ (SEQ ID NO: 45) (LCDR1 of 1qfw.pdb); Peptide-11: +SESVDSYGNSFMQZ (SEQ ID NO: 46) (LCDR1 of 1qfw.pdb); Peptide-12: +RASESVDSYGNSFMZ (SEQ ID NO: 47) (LCDR1 of 1qfw.pdb); Peptide-13: +ASESVDSYGNSFMQZ (SEQ ID NO: 48) (LCDR1 of 1qfw.pdb); Peptide-14: +RASESVDSYGNSFMQZ (SEQ ID NO: 49) (LCDR1 of 1qfw.pdb); Peptide-15: +KASETVDSFVSZ (SEQ ID NO: 50) (LCDR1 of 1qfw.pdb); Peptide-16: +LLVYYTTTLADGZ (SEQ ID NO: 51) (LCDR2 of 1fdl.pdb); Peptide-17: +LLIKYVSQSSSGZ (SEQ ID NO: 52) (LCDR2 of 1mlb.pdb); Peptide-18: +RWIYDTSKLASGZ (SEQ ID NO: 53) (LCDR2 of 3hfl.pdb); Peptide-19: +LLIKYASQSISGZ (SEQ ID NO: 54) (LCDR2 of 3hfm.pdb); Peptide-20: +LLIYRASNLESGZ (SEQ ID NO: 55) (LCDR2 of 1qfw.pdb); Peptide-21: LLIFGASNRESGZ (SEQ ID NO: 56) (LCDR2 of 1qfw.pdb); Peptide-22: +QHFWSTPRTZ (SEQ ID NO: 57) (LCDR3 of 1fdl.pdb); Peptide-23: +QQSNSWPRTZ (SEQ ID NO: 58) (LCDR3 of 1mlb.pdb); Peptide-24: +QQWGRNPTZ (SEQ ID NO: 59) (LCDR3 of 3hfl.pdb); Peptide-25: +QQSNSWPYTZ (SEQ ID NO: 60) (LCDR3 of 3hfm.pdb); Peptide-26: +QQSDEYPYMYTZ (SEQ ID NO: 61) (LCDR3 of 1qfw.pdb); Peptide-27: +GQTYNHPYTZ (SEQ ID NO: 62) (LCDR3 of 1qfw.pdb) (1 fdl.pdb, 1mlb.pdb, 3hfl.pdb and 3hfm.pdb are antibodies that bind lysozyme; 1 qfw.pdb are two antibodies that bind human choriogonadotrophin). All peptides have an amioterminal bromo-group (+) and a carboxyterminal lysine-mmt (Z).
From six different antibodies, the HCDR3-region (complementary determining region three of the antibody heavy chain) was synthesized as synthetic loop-peptides. As an example, four different anti-lysozyme antibodies and two different anti-choriogonadotrophin antibodies were selected: 1fdl.pdb (D1.3), 1mlb.pdb (D44.1), 3hfl.pdb (HyHel-5), 3hfm.pdb (HyHel-10) all anti-lysozyme, and 1qfw.pdb, two anti-human choriogonadotrophin, one anti-alpha and one anti-beta. The synthetic loop peptides were coupled to the minicards as described above. The three-dimensional coordinates (pdb-files) were extracted from the Protein Data Bank (PDB) at www.rcsb.org (RCSB, Research Collaboratory for Structural Bioinformatics) (Berman et al., 2000, The Protein Data Bank. Nucleic Acids Research, 28 pp. 235-242; Bernstein et al. 1977, The protein data bank: A computer-based archival file for macromolecular structures. J. Mol. Biol. 112:535-542). […]

Antibody-1 = assay: Pepscan ELISA on single or double hFSH peptide loops, Antibody-1; settings: individual loop peptides coupled as a single loop
Excerpt: as §1, §2

monoclonal antibody 210 = assay: Standard linear Pepscan on all overlapping 12-mers of hTNF with mAb 210; settings: all overlapping linear 12-mers covering hTNF
Description: FIG. 10: Standard linear Pepscan on all overlapping synthetic 12-mers covering the linear sequence of hTNF with monoclonal antibody 210 (R&D Systems, MAB210, clone 1825.12, through ITK Diagnostics Uithoorn, The Netherlands). A small peak with the sequence IKSPCQRETPEG (SEQ ID NO: 2) was identified. The y-axis are optical density values (OD) obtained using a ccd-camera system. Rampo, rabbit-anti-mouse peroxidase (DAKO).
The monoclonal antibody mAb-210 raised against hTNF was tested on linear and loop peptides (mAb-210 was bought from R&D Systems, MAB210, clone 1825.12, through ITK Diagnostics Uithoorn, The Netherlands). Firstly, it was tested in Pepscan on all overlapping linear 12-mers covering hTNF. […] Secondly, it was tested in Pepscan matrix-scan on double 15-mer loop-loop peptides (as described in FIGS. 3 and 4 and explained through FIGS. 11-12). Two loop-regions were labeled: peptide sequence GQGCPSTHVLLT (SEQ ID NO: 65) (squares 65 to 67) and SAIKSPCQRE (SEQ ID NO: 28) (squares 92 to 96) (FIGS. 13, 14). In addition in various squares loop peptide spots were identified corresponding to sequence GQGCPSTHVLLT (SEQ ID NO: 65) (spots 65-67); SAIKSPCQRE (SEQ ID NO: 28) (spots 92-96) and KGDRLSAEINR (SEQ ID NO: 29) (spots 126-129) (FIG. 14). […]

Substance	binding activity with lysozyme-biotin (lysozyme-biotin)	also measured
+KSYNRVTVMGGFKVEZ-conh2 ({code +}-KSYNRVTVMGGFKVEX-NH2; not fully specified; printed as +KSYNRVTVMGGFKVEZ-conh2) [loop peptide-1, loop-peptide derived from human Follicle-Stimulating Hormone (hFSH)]	–	recognition by Antibody-2 (Antibody-2): recognized
+LHGNYDFDGZ (SEQ ID NO: 32)+ASESVDSYGNSFMZ (SEQ ID NO: 45): loop-loop peptide pair: loop of HCDR3 of 3hfl.pdb and loop of LCDR1 1qfw.pdb (chain 1 {code +}-LHGNYDFDGK(mmt); chain 2 {code +}-ASESVDSYGNSFMK(mmt); not fully specified; reading uncertain)	highest binding activity	–
+LHGNYDFDGZ (SEQ ID NO: 32)+ASESVDSYGNSFZ (SEQ ID NO: 41): loop-loop peptide pair: loop of HCDR3 of 3hfl.pdb and loop of LCDR1 1qfw.pdb (chain 1 {code +}-LHGNYDFDGK(mmt); chain 2 {code +}-ASESVDSYGNSFK(mmt); not fully specified; reading uncertain)	highest binding activity	–
+LHGNYDFDGZ (SEQ ID NO: 32)+LLVYYTTTLADGZ (SEQ ID NO: 51): loop-loop peptide pair: loop of HCDR3 of 3hfl.pdb and loop of LCDR2 1fdl.pdb (chain 1 {code +}-LHGNYDFDGK(mmt); chain 2 {code +}-LLVYYTTTLADGK(mmt); not fully specified; reading uncertain)	highest binding activity	–
+LHGNYDFDGZ (SEQ ID NO: 32)+RASESVDSYGNSFMQZ (SEQ ID NO: 49): loop-loop peptide pair: loop of HCDR3 of 3hfl.pdb and loop of LCDR1 1qfw.pdb (chain 1 {code +}-LHGNYDFDGK(mmt); chain 2 {code +}-RASESVDSYGNSFMQK(mmt); not fully specified; reading uncertain)	highest binding activity	–
+LHGNYDFDGZ (SEQ ID NO: 32)+RASESVDSYGNSFZ (SEQ ID NO: 44): loop-loop peptide pair: loop of HCDR3 of 3hfl.pdb and loop of LCDR1 1qfw.pdb (chain 1 {code +}-LHGNYDFDGK(mmt); chain 2 {code +}-RASESVDSYGNSFK(mmt); not fully specified; reading uncertain)	highest binding activity	–
+LHGNYDFDGZ (SEQ ID NO: 32)+SESVDSYGNSFMQZ (SEQ ID NO: 46): loop-loop peptide pair: loop of HCDR3 of 3hfl.pdb with loop of LCDR1 of 1qfw.pdb (chain 1 {code +}-LHGNYDFDGK(mmt); chain 2 {code +}-SESVDSYGNSFMQK(mmt); not fully specified; reading uncertain)	highest binding activity	–
+LQENPFFSQPGAPILZ-conh2 ({code +}-LQENPFFSQPGAPILX-NH2; not fully specified; printed as +LQENPFFSQPGAPILZ-conh2) [loop peptide-2, loop-peptide derived from human Follicle-Stimulating Hormone (hFSH)]	–	recognition by Antibody-1 (Antibody-1): recognized
IKSPCQRETPEG	–	Pepscan binding of monoclonal antibody 210 (optical density) (monoclonal antibody 210): minor peak; also recorded: small peak
